Experimental data as given in a protein production outcome set (Wang et al. 2014).

Test: label from the status in PepcDB records
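Also: failed if final PepcDB status was selected cloned or expressed and not failed if soluble or beyond.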

Row | Sequence | protein production
1 | MSITATHDTSSKGRHALPALALLLLMTLSGCAARDMGDGTSPSLMERHATGKSLAPDAPGTPQRQGTPAAEAEAHLQRGLAYLAQDRPELAFEHFSRAASLAPEMVEPRLQRARLLVRRGMPNEAAADIEAVLAASPQHARAWELAGMVAFDRGLLDEAEADFTRAITLDPDLASCYAHLGAVHDYKGRPDLARDVYAAALVRFPQSGELHNNLGVAFSMLGDDASALHHFHEAVVLGASSERSWNNMGLALCRLGRFDEAFEAFRNAGGEAAAHNNLGYFFLVNGDASLAVQHLQRAVELEPRYYVRAAENLKRARLAARFAAGGVPVPAAGPQTGGIAGTPVNKAGVLPPATGKGPGTRTTGAGERVIQ | failed
2 | MTHPFEPFFDKDSKILILGSFPSIKSRQDGFYYQHPRNRFWPILETLFNAKLENITEQQAFLRKKHIALWDVLQSCKIKNSDDKTISYAKANDLNLILSQTKIQAIFTTGQSAYRFFVKFHPRLEAIALPSTSPANLNFSFEQLLQNYEIIKKFTKLEHHHHHH | failed
3 | MKPIRYTIAPAAPEAHLFTVTVTVDAPDPQGQRFSLPAWIPGSYMIREFARNIVRIEAMCGERAVRLAKLDKHTWQAAPCSGPLTVSYDVYAWDLSVRAAHLDPTHGFFNGTSVFLRVEGGEQVRCLVDIQPPAGDAYRGWRVATALREASGRVQGRVGAKRYGFGWYEAADYDELIDHPVEMGTFALVSFEACGAQHDAVFTGRVPNLDLERIARDFKRICEAQIRLFEPHTAAAPFLDSNRRYVFMTMVTTDGYGGLEHRASTALICARNDLPVTGRDETTEGYRTFLGLVSHEYFHTWNVKRIKPAVFVPYALDREVHTPLLWLFEGFTSYYDDLMLVRSGLISEAQYLEMLAKTWNGVLRGSGRLKQSVAESSFDAWTKYYRQDENAPNAIVSYYTKGSLVALALDLTIRTQTGGEHSLDDVMRALWAAGGRDFYAPGHAQRGVTEAELIALMEETTGLRLRTLVRQLAEGRDDPPLPALFKAIGVTATRKPAEAALGLGAKVGAENGFVKLLQVFDGGPAQRAGLSAGDLVVAVDGLRVLSGQLDKSLARHRAGDTVPVHVFRRDELMQLDVTLSADATPQFALALSAEPSPLRSAWLGKRAAARGARPAKSRSAA | failed
4 | MRAIAIVLARSSSKRIKNKNIIDFFNKPMLAYPIEVALNSKLFEKVFISSDSMEYVNLAKNYGASFLNLRPKILADDRATTLEVMAYHMEELELKDEDIACCLYGASALLQEKHLKNAFETLNKNQNTDYVFTCSPFSASPYRSFSLENGVQMAFKEHSNTRTQDLKTLYHDAGLLYMGKAQAFKEMRPIFSQNSIALELSPLEVQDIAHFRRFRISQAQIQPFEKRMPVKILCDCFLTSGLGHVRRCEKILSFIEKLGVEASLYLHKQNNISAFLEGVGGNDFLITDSYCLNSKDFYLLKEKAKSLMVIEDTEHAKGFYPKNTKILNFTLNALKHYHHLSKDYQYYLGVGFYPVDARFIYDRPINTENKEVLITLGGSEQKTLKEIVKILENKNVNLHIISPYTPKNPPKNTHYYSPLNPLEFSSLMKSCACAISAAGQTLYELALSQTPSLILPIASNQIIQSKEFESLGIFKQTSLKTLAKDFENLQIQKNQAWAKNLVFGDKLEGALREFLEI | failed
5 | MWAFLVEQPNLPYTIAFACVLVLGVFEALALLIGLSMMSALDQWVPADVEYDADIGGSGLTGIAGWLCLNRLPLLIWFVLALTSFAIAGYLVNYISLMVSATLLPQLFTLPIAVVGSALSCRYLGRMLADLLPKNESTAISLDDLSGYVGTITLGCAIKGMPSEAVVRDKHQQKHYVLVEPETSGIEFASGTQVVLLKREGRVWSATRFDN | failed
6 | MRMIDIIEKKRDGHTLTTEEINFFIGGYVKGDIPDYQASSLAMAIYFQDMNDDERAALTMAMVNSGDMIDLSDIKGVKVDKHSTGGVGDTTTLVLAPLVAAVDVPVAKMSGRGLGHTGGTIDKLEAIDGFHVEIDEATFVKLVNENKVAVVGQSGNLTPADKKLYALRDVTGTVNSIPLIASSIMSKKIAAGADAIVLDVKTGSGAFMKTLEDAEALAHAMVRIGNNVGRNTMAIISDMNQPLGRAIGNALELQEAIDTLKGQGPKDLTELVLTLGSQMVVLANKAETLEEARALLIEAINSGAALEKFKTFIKNQGGDETVIDHPERLPQAQYQIEYKAKKSGYVTELVSNDIGVASMMLGAGRLTKEDDIDLAVGIVLNKKIGDKVEEGESLLTIHSNRQDVDDVVKKLDSSITIADHVVSPTLIHKIITE | not failed
7 | MAIVKMNKFTLLAFESEKEKLLKKIQSSSEVEFINLQDEEKVEGNEVFESLSKDDLDAETTLIEENVSKTRSALDFLKEFVAEVGGLKALKAGKESLTLDELEVKVENSNWEVVYSEVKKMERELATLENEKTKLLGEIEILEPWQSFDAPLGELNNFEKVVAFLGVISSQNLENMKNEIESEFKESYIEVISNTDQDSYVFVMTMKERAEEMDEVLKNFGFSAFQTKYKEKASVLVEEFKLKIQEIEAQKSDLKGVLSNYREEKRTLELAYEYYSNILLRKEASENFLKTDKVVVIQGWVPKNDNSSLEGIIQSSVGDMYYLEFEEVKEEEVAEVPVKLHNKGPAAAFDSITEMYSLPRYDEIDPTPLLTPFYLVFFGMMVADLGYGLVLFVGSLLAMKLLNLDEAQEKFAKFFMYLSIATTIAGAVFGTAFGFELKSIGLINPSKDTNLLLILSVGFGVIQIFFGLFIKAYMLIRDKQYLYALFDVGSWIMLLIGLPMIFFDGPISLVGKVLSIVGSILIILTQGRDEETKGAQIGQGLYALYGITGYVGDLVSYTRLMALGIAGGSIAAALNLIIGMFPGIAVIIVGPLFFIAAHTFNMLLSLLGAYVHTARLQYVEYFSKFYEGGGKAFTPFRTINKFITIKRNK | failed
8 | SKETIMNQKLTKRQAEVHTGRKGTAHRKKVVHTTAEDKKFQFSLKKLGVNNIPGIEEVNMFTHQGTVIHFNNPEVQASLAANTFTMTGHAETKQLTEMLLSIDHKPVLQMV | not failed
9 | MPEMADVMQTQAGDAGAFRHFDLSRVPTPCFVVDEVAIERNLKILRDISDRSGAHVLSALKAFSMFTLAPLVRQYLGGTCASGIYEARLGREEYGGEVATFCAGYKEQDIDEILSLSNHIIFNSPAQKDRFLSRAQAAGVQVGLRINPEHSEGEIAKYDPCAPCSRLGTPVSLLTPETLKGVDGLHMHTLCEQGFEPLLRTWAAVEPKLAPYLPGLKWLNFGGGHHITRADYDRDALIDFLKSLRARHGLDVYLEPGEAVALDAGILVGEILDLPSNGMDLAITDISATCHMPDVIEAPYRPALMDEADSGHTYRLGGPSCLAGDVIGDYTWDQPLTIGQRFAFLDQAHYSMVKTNTFNGVPLPTIALWNSKTDALRIVRQFDYSDFKDRLS | not failed
10 | MKVAILGAGCYRTHAASGITNFSRASQVAKEAGIPEIAMTHSTITMGAELLHLIPEITEVVVSDPCFAEEPGMVVLDQFDYKAVMEAHLAGDAEKVMPEIREAVKAKAKETPKPPKGCIHFVHPETVGLKVTASDVEAVKDADIVITWLPKGGSQPAIIEKFASEIKKGAIVTHACTIPTPKFAKIFKDLGRDDLNIIAYHPGAVPEMKGQAFLSEGLADAEKVEEFYCMAKTARGEAFKMPANLISPVCDMGSAVTAPVYAAILAYRDAVTQILGAPADFAQMMADEAISQILDLMRNEGIKNMEDKLNPKALTGTADSMCFGPLADILPASLKVLEKHANENKCECGCSIKP | failed
11 | MPVQTYPVDIVIRAYDRPGLLRDVSQVLLNEKINVLAVNTRSNKEDNTALMSLTIEIPGLDALGRLLGRISQLPNIIETRRNRTPLEHHHHHH | failed
12 | MGNIYQITVEEKAEHQRTLSFEFSLHDDLFKLLEKVDGKMDMTPEQTQAFMVGLKLFGEVMMQQRKHPLFKEFSAPFRAFMMNLKKQ | not failed
13 | MSGPGSDPVFAALTRPQMVAGVTYSYAVFNLIVTMEAFLISKSFWALLIAPLVHAVGYLGCLNEPRFFDLWITKVSRCPNIRNRGFWQANSYRP | failed
14 | MRIVIVGGSKFGVATAEQLIDKGHEVVLIDKNREKLEALTDRLDCGMIQGDGSSPKVLREAYAEENDVLVALTNASDDNILTALVARSVGFGRVIPQIVEAELLDVCVELDLKDTITPHVTVARSICRALEEDTELARDTNLTGDLRLLRLSVTSQLSGCSLSELDLPDECRAVAIVHEDREKFADPDAVVSEGEDILFAVHEDRVADLKALFATS | failed
15 | MKIDILDKGFVELVDVMGNDLSAVRAARVSFDMGLKDEERDRHLIEYLMKHGHETPFEHIVFTFHVKAPIFVARQWFRHRIASYNELSGRYSKLSYEFYIPSPERLEGYKTTIPPERVTEKISEIVDKAYRTYLELIESGVPREVARIVLPLNLYTRFFWTVNARSLMNFLNLRADSHAQWEIQQYALAIARIFKEKCPWTFEAFLKYAYKGDILKEVQV | not failed
